We go through eight molecules from patent publication US20100166741A1 (Genentech, published 2010).

Numbering of substitutions follows the chain as printed. Numbers in names are those of the source.

First the molecules themselves.
T1: human FcγRIIb extracellular domain, His-tagged GST fusion (human, UniProt P31994 43-217)
T1 construct: extracellular domain; also called hFcgRIIb; CD32B; not shown: C-terminal Gly/His6/GST tag
T1 sequence (looked up): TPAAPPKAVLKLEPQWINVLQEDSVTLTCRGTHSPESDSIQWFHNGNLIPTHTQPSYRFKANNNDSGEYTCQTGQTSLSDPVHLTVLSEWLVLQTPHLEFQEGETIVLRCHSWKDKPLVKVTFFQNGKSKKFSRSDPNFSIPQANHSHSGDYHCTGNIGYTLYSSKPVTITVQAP

T2: human FcγRIIa extracellular domain, His-tagged GST fusion (human, UniProt P12318 34-217)
T2 construct: extracellular domain; also called hFcgRIIa; CD32A; not shown: C-terminal Gly/His6/GST tag
T2 sequence (looked up): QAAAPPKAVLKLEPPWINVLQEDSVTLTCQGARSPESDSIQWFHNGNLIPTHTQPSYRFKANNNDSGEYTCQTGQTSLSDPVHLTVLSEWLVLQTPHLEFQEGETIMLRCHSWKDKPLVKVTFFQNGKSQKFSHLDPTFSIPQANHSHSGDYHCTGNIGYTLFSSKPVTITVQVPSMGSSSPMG

T3: mouse FcγRI extracellular domain, His-tagged GST fusion (mouse, UniProt P26151 25-297)
T3 construct: extracellular domain; also called Mouse I; mFcγRI; not shown: His tag and GST
T3 sequence (looked up): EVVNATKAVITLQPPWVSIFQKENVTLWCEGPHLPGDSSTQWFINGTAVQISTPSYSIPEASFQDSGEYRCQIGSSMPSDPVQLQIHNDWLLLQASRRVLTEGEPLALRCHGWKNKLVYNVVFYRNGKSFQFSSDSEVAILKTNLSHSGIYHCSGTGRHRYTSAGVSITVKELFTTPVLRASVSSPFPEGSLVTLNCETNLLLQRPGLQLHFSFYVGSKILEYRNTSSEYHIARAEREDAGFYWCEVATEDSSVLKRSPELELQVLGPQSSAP

T4: mouse FcγRIII extracellular domain, His-tagged GST fusion (mouse, UniProt P08508 31-215)
T4 construct: extracellular domain; also called Mouse III; not shown: His tag and GST
T4 sequence (looked up): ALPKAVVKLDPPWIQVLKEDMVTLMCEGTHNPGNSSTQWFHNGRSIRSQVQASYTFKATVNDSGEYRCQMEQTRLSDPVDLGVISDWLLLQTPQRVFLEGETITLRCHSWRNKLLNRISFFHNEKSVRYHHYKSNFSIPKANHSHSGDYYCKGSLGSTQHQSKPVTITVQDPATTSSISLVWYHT

T5: mouse FcγRII extracellular domain, His-tagged GST fusion (mouse, UniProt P08101 30-210)
T5 construct: extracellular domain; also called Mouse II; not shown: His tag and GST
T5 sequence (looked up): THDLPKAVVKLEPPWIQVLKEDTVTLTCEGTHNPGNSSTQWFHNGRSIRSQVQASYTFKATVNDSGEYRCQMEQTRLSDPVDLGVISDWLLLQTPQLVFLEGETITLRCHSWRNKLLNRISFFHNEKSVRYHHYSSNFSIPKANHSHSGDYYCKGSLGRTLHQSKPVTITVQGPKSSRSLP

B1: 9.1(10) (antibody, human IgG1, kappa)
heavy: EVQLVESGGGLVQPGGSLRLSCAASGFTVTAYYMSWVRQAPGKGLEWVGFIRDKANGYTTEYNPSVKGRFTISRDTSKNTFYLQMNSLRAEDTAVYYCAQVRRALDYWGQGTLVTVSSASTKGPSVFPLAPSSKSTSGGTAALGCLVKDYFPEPVTVSWNSGALTSGVHTFPAVLQSSGLYSLSSVVTVPSSSLGTQTYICNVNHKPSNTKVDKKVEPKSCDKTHTCPPCPAPELLGGPDVFLFPPKPKDTLMISRTPEVTCVVVDVSDEDPEVKFNWYVDGVEVHNAKTKPREEQYNATYRVVSVLTVLHQDWLNGKEYKCKVSNAALPAPEEKTISKAKGQPREPQVYTLPPSREEMTKNQVSLTCLVKGFYPSDIAVEWESNGQPENNYKTTPPVLDSDGSFFLYSKLTVDKSRWQQGNVFSCSVMHEALHNHYTQKSLSLSPG
light: DIQMTQSPSSLSASVGDRVTITCKSSQSLLYSSNQNNYLAWYQQKPGKAPKLLIYWASTRESGVPSRFSGSGSGTDFTLTISSLQPEDFATYYCQQYYTYPYTFGQGTKVEIKRTVAAPSVFIFPPSDEQLKSGTASVVCLLNNFYPREAKVQWKVDNALQSGNSQESVTEQDSKDSTYSLSSTLTLSKADYEKHKVYACEVTHQGLSSPVTKSFNRGEC
notes: Fc variant of 9.1RF, expressed in 293 cells; also called 9.1RF 239D/268D/298A/326A/332E
B2: 9.1(9) (antibody, human IgG1, kappa)
heavy: B1 heavy with A327K
light: B1 light
notes: Fc variant of 9.1RF, expressed in 293 cells; also called 9.1RF 239D/268D/298A/332E
B3: 9.1(6) (antibody, human IgG1, kappa)
heavy: B1 heavy with D240S, D269H, A327K, E333I, E334A, K335A
light: B1 light
notes: Fc variant of 9.1RF, expressed in CHO; also called 9.1RF S298A/E333A/K334A
B4: 9.1-RF N434W (antibody, human IgG1, kappa)
heavy: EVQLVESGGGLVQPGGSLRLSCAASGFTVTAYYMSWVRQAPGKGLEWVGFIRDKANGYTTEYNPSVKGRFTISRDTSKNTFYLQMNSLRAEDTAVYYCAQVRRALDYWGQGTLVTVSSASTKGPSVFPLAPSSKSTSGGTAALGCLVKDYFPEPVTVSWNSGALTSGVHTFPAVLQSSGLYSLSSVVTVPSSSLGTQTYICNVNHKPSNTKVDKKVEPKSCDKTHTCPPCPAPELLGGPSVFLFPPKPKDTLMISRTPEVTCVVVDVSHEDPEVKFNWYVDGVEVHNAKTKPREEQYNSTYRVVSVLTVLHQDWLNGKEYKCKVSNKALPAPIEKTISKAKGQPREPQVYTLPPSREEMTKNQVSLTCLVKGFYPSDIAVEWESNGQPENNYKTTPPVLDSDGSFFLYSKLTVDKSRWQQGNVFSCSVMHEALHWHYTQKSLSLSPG
light: B1 light
notes: also called Hu9.1RF IgG1 with an N434W mutation; Control (agonistic positive control)
B5: 9.1-RF N434A (antibody, human IgG1, kappa)
heavy: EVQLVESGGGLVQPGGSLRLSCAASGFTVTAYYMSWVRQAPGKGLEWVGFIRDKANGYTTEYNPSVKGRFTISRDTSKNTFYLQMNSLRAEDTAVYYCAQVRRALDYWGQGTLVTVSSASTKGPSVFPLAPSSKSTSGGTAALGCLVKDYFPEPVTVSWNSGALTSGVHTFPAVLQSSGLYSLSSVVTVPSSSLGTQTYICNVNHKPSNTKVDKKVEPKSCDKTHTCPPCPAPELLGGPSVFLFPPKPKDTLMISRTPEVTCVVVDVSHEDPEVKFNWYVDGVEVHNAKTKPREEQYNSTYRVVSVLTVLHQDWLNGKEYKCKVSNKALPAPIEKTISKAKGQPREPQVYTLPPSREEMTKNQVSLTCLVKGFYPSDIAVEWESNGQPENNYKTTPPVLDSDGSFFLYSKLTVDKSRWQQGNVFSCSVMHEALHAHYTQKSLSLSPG
light: B1 light
notes: also called 9.1RF-IgG (N434X), X = A
B6: 9.1(5) (antibody, human IgG1, kappa)
heavy: B1 heavy with D240S, D269H, E333I, E334A, K335A
light: B1 light
notes: Fc variant of 9.1RF, expressed in CHO; also called 9.1RF S298A/K326A/E333A/K334A
B7: 9.1(8) (antibody, human IgG1, kappa)
heavy: B1 heavy with D269H, A327K
light: B1 light
notes: Fc variant of 9.1RF, expressed in CHO; also called 9.1RF 239D/298A/332E
B8: 9.1(7) (antibody, human IgG1, kappa)
heavy: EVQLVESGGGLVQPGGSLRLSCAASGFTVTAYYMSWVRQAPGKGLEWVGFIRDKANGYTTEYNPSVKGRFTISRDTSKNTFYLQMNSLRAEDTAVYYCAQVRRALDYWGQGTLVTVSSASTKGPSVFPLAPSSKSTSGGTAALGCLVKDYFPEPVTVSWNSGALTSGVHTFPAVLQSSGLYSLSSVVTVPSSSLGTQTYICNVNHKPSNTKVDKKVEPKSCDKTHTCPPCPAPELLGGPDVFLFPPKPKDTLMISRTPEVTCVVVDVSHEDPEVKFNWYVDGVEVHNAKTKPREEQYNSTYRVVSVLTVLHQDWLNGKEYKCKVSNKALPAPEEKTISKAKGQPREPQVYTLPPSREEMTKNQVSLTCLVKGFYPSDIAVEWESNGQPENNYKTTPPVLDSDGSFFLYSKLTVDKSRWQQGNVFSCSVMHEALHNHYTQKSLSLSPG
light: B1 light
notes: Fc variant of 9.1RF, expressed in CHO; also called 9.1RF 239D/332E

The target in one test is T6, human FcγRI extracellular domain, His-tagged GST fusion (human, UniProt P12314 16-292).
T6 construct: extracellular domain; also called hFcgRI; FcγRIA; not shown: C-terminal Gly/His6/GST tag
Description: Fcγ receptor ELISA; bar = fold increase in binding over Herceptin, log axis 0.1-1000.
In the case of B1, the binding result is “binds”.
Still for that read-out and setting: then B2, with “binds”.

A further test has as its target T1, human FcγRIIb extracellular domain, …. Described as above.
With B1, the binding result is “binds”.
As to B2, the binding result was “binds”.

A further test has as its target T7, human FcγRIII (CD16) on NK cells (human, UniProt P08637 17-254). The test can be described thus: cell-based or functional assay.
As to B3, the “ADCC on BJAB cells with NK cells, relative EC50 values against 9.1RF” value was 2.8 fold.

Another test deals with T2, human FcγRIIa extracellular domain, …. The test can be described thus: ELISA, FcγR-His-GST captured by anti-GST, complexed IgG.
Description: (§1) MaxiSorp 96-well microwell plates (Nunc, Roskilde, Denmark) were coated with 2 μg/ml anti-GST (clone 8E2.1.1, Genentech), at 100 μl/well in 50 mM carbonate buffer, pH 9.6, at 4° C. overnight. Plates were washed with PBS containing 0.05% polysorbate, pH 7.4 (wash buffer) and blocked with PBS containing 0.5% BSA, pH 7.4, at 150 μl/well. After an hour incubation at room temperature, plates were washed with wash buffer. […] The plates were incubated for one hour and washed with wash buffer. For low affinity Fcγ receptors IIa, IIb, III (F158) and high affinity III (V158), antibodies were incubated with goat F(ab′)₂ anti-κ (Cappel, ICN Pharmaceuticals, Inc., Aurora, Ohio) or anti-λ. (BioSource, Camarillo, Calif.) antibody at a 1:2 (w/w) ratio for 1 hour to form antibody complexes. […] After a two-hour incubation, plates were washed with wash buffer. Bound IgG was detected by adding peroxidase labeled goat F(ab′)₂ anti-human IgG F(ab′)₂ (Jackson ImmunoResearch, West Grove, Pa.) at 100 μl/well in assay buffer. After a one-hour incubation, plates were washed with wash buffer and the substrate 3,3′,5,5′-tetramethyl benzidine (TMB) (Kirkegaard & Perry Laboratories) was added at 100 μl/well. The reaction was stopped by adding 1 M phosphoric acid at 100 μl/well. Absorbance was read at 450 nm on a multiskan Ascent reader (Thermo Labsystems, Helsinki, Finland).
(§2) The absorbance at the midpoint of the standard curve (mid-OD vs. ng/ml) was calculated. The corresponding concentrations of standard and samples at this mid-OD were determined from the titration curves using a four-parameter nonlinear regression curve-fitting program (KaleidaGraph, Synergy software, Reading, Pa.). The relative activity was calculated by dividing the mid-OD concentration of standard by that of sample.
Take B4: the “binding relative to 9.1-RF” value is 0.64.
Turning to B5, the “binding relative to 9.1-RF” value is 0.66.

Another test addresses T1, human FcγRIIb extracellular domain, …. The description is as above.
Description: as §1, §2
With B4, the “binding relative to 9.1-RF” value is 0.4.
The same measure, in the same setting: the same measure for B5: 0.45.

The target in another test is T6, human FcγRI extracellular domain, …. Description: ELISA, FcγR-His-GST captured by anti-GST. In general terms: ELISA stands for enzyme-linked immunosorbent assay.
Description: as §1, §2
For B4, the “binding relative to 9.1-RF” value stood at 1.
Consider B5, for which the “binding relative to 9.1-RF” value was determined as 0.97.

A further test deals with T7, human FcγRIII (CD16) on NK cells. The test can be described thus: cell-based or functional assay. The source holds these as a separate data set.
Regarding B6, the “ADCC on BJAB cells with NK cells, relative fold increase compared to 9.1RF” value (shortened to “ADCC … relative fold increase compared to 9.1RF”) was found to be 3 fold.
Still for that read-out and setting: then B7, with 12 fold; and B3, with 3 fold.
Consider B1, for which the “ADCC … relative fold increase compared to 9.1RF” value was 10 fold.
With B2, the “ADCC … relative fold increase compared to 9.1RF” value came to 10 fold.
The same measure, in the same setting: then B8, with 7 fold.

For the next test, the target named is T2, human FcγRIIa extracellular domain, …. The test can be described thus: ELISA, captured FcγR-GST.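 Also: antibody variants applied as dilution series to receptor wells, with retained antibody read out via an HRP-linked goat F(ab′)2 fragment recognizing human Fab′2.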
Description: (§3) Binding of the variant antibodies to Fcγ receptors was evaluated using an ELISA-based assay. […] Dilutions of the variant antibodies were added and allowed to bind followed by washing of the wells to remove unbound antibody. […] Bound antibody was detected with an HRP-coupled, Fab′2 fragment of a goat anti-huFab′2 antibody.
Regarding B6, the “fold improvement in binding vs Herceptin (EC50herceptin/EC50sample)” value (shortened to “fold improvement in binding vs Herceptin”) is 0.2 fold.
Regarding B7, the “fold improvement in binding vs Herceptin” value worked out at 0.9 fold.
Still for that read-out and setting: then B3, with 0.2 fold.
As to B8, the “fold improvement in binding vs Herceptin” value was determined as 5.3 fold.

For another test, the target named is T3, mouse FcγRI extracellular domain, …. The test can be described thus: ELISA, captured FcγR-GST.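 Also: antibody variants applied as dilution series to receptor wells, with retained antibody read out via an HRP-linked goat F(ab′)2 fragment recognizing human Fab′2.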
Description: as §3
For the molecule B6, the “fold improvement in binding vs Herceptin” value stood at 1.9 fold.
Still for that read-out and setting: the same measure for B7: 24 fold; for B3: 2.5 fold.
Same read-out and setting: the same measure for B8: 62 fold.

The target in another test is T6, human FcγRI extracellular domain, …. Description: ELISA, captured FcγR-GST.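 Also: antibody variants applied as dilution series to receptor wells, with retained antibody read out via an HRP-linked goat F(ab′)2 fragment recognizing human Fab′2.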
Description: as §3
As for B6, the “fold improvement in binding vs Herceptin” value came out at 0.6 fold.
Still for that read-out and setting: then B7, with 0.7 fold; and B3, with 0.7 fold.
B8: the “fold improvement in binding vs Herceptin” value worked out at 0.7 fold.

The target in a further test is T4, mouse FcγRIII extracellular domain, …. The test can be described thus: ELISA, captured FcγR-GST.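 Also: antibody variants applied as dilution series to receptor wells, with retained antibody read out via an HRP-linked goat F(ab′)2 fragment recognizing human Fab′2.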
Description: as §3
As to B6, the “fold improvement in binding vs Herceptin” value turned out to be 1.2 fold.
Regarding B7, the “fold improvement in binding vs Herceptin” value stood at 4 fold.
The same measure, in the same setting: then B3, with 0.6 fold; and B8, with 9.9 fold.

In the next test the target is T5, mouse FcγRII extracellular domain, …. The test can be described thus: ELISA, captured FcγR-GST.
Description: as §3
Regarding B6, the “fold improvement in binding vs Herceptin” value worked out at 1.3 fold.
Same read-out and setting: the same measure for B7: 7.6 fold; for B3: 0.4 fold; for B8: 19 fold.

The target of the next test is T1, human FcγRIIb extracellular domain, …. The test can be described thus: ELISA, captured FcγR-GST.
Description: as §3
In the case of B6, the “fold improvement in binding vs Herceptin” value was 0.7 fold.
With B7, the “fold improvement in binding vs Herceptin” value turned out to be 3.5 fold.
On the same count and under the same terms, the same measure for B3: 0.4 fold; for B8: 17 fold.
